Measurements as given in the supplement of paper PMC11865577.

Key:
Test in all cases: pull-down binding Z-score (relative to library population); higher = stronger binding
Conditions in all cases: RNA library: Library-2
[1] = system: TO-N3-2 (biotin conjugate)
Outline: (§1)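 A heat-folded, dye-end-labelled (Cy5 or Cy3) RNA library (1 μg, phosphate/NaCl/KCl buffer) was exposed for 60 min at 25 °C to streptavidin beads holding 100 pmol of biotin-conjugated small molecule. RNA retained on the beads was eluted in hot SDS and hybridised to a DNA barcode microarray for 20 h at 55.5 °C. Binding scores were Z-scores against the library mean and standard deviation, calculated after subtracting beads alone and taking trimmed means of replicate probes.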

[2] = system: TO-N3 (biotin conjugate)
Outline: as §1

[3] = system: TO-3-N3 (biotin conjugate)
Outline: as §1

[4] = system: TO-3-N3-2 (biotin conjugate)
Outline: as §1

Sequence	pull-down binding Z-score [1]	pull-down binding Z-score [2]	pull-down binding Z-score [3]	pull-down binding Z-score [4]
GGAAUAAGUACGAUACUUACCUG [U1snRNP5ss-5]	1.56	0.464	-0.215	0.089
GGAAUAAGUAUGAUACUUACCUG [U1snRNP5ss-6]	1.18	1.81	1.69	0.331
GGAAUGGAUCCC [IAV_invivo_NP_5_Motif_9+IAV_invivo_NP_5_Motif_9]	-0.367	-0.323	-0.119	-0.0967
GGAAUUGCAAUGUCGAUAGAUAUCCUGCUAAUUCC [DMSMaPseq_invitro_SARS-CoV-2_Motif_342]	-0.212	-0.229	-0.203	-0.418
GGAAUUGUGUUAAUUGUGAUACAUUCU [SHAPE_invitro_SARS-CoV-2_Motif_150]	-0.855	-0.949	-0.83	-0.388
GGAAUUUGAACC [IAV_invivo_PB2_1_Motif_28+IAV_invivo_PB2_1_Motif_28]	-0.514	0.0885	0.293	-0.147
GGACAAUUCACCUAAUUUAGCAUGGCCUCUUAUUGUAACAGCUUUAAGGGCCAAUUCUGCUGUCAAAUUACAGAAUAAUGAGCUUAGUCC	-0.485	-0.563	-0.496	-0.176
GGACCAGGAACUAAUCAGACAAGGAACUGAUUACAAACAUUGGCC [DMSMaPseq_invitro_SARS-CoV-2_Motif_522]	0.031	1.01	1.03	0.134
GGACCUGAGCGCACCUGUUGUCU [SHAPE_invivo_SARS-CoV-2_Motif_351]	1.67	1.58	0.863	0.645
GGACUUGAAAGAGCC	-0.676	-0.45	-0.384	-0.442
GGAGAAAAUUCC [IAV_invivo_PA_3_Motif_17+IAV_invivo_PA_3_Motif_17]	-0.726	-0.797	-0.517	-0.333
GGAGAAGAACCC [IAV_invivo_PB2_1_Motif_3+IAV_invivo_PB2_1_Motif_3]	0.0437	-0.17	-0.254	-0.0996
GGAGACAGGUGGUUUCUCAAUCGAUUUACCACAACUCU [SHAPE_invivo_SARS-CoV-2_Motif_209]	-0.516	-0.19	-0.078	-0.326
GGAGAGUGUGGACACUUAUGAAUGUCUUGACACUCGUU [SHAPE_invitro_SARS-CoV-2_Motif_211]	0.364	0.586	0.331	0.121
GGAGAGUGUUCAGACAUUCUUU [SHAPE_invitro_SARS-CoV-2_Motif_44]	-0.602	-0.508	-0.535	-0.361
GGAGAUGAGGCGUUGCCUCCUCC [IAV_invivo_PA_3_Motif_24+IAV_invivo_PA_3_Motif_24]	-0.275	-1.01	-0.646	-0.663
GGAGGAGGAGGAGGAGGA [G4_r(GGA)6]	-1.68	2.99	4.17	7.36
GGAGGAGGAGGAGGAGGAGGAGGAGGAGGAGGAGGAGGAGGAGGAGGA [G4_r(GGA)16]	3.35	5.89	7.15	8.95
GGAGGGCCUUCUACGGAAGGAGUGCC [IAV_invivo_M1_M2_7_Motif_16+IAV_invivo_M1_M2_7_Motif_16]	1.57	0.646	0.296	-0.0132
GGAGGUUGCUAGUCAGGCUAGACAAAUGGUGCAAGCGAUGAGAACCAUUGGAACUCAUCCUAGCUCCAGUGCUGGUCUGAAAAAUGAUCUUC [IAV_invivo_M1_M2_7_Motif_15+IAV_invivo_M1_M2_7_Motif_15]	0.839	-0.195	-0.55	-0.816
GGAGUAAGUCUGAUACUUACCUG [U1snRNP5ss-1]	0.773	0.599	-0.0269	-0.152

Sequence	pull-down binding Z-score [1]	pull-down binding Z-score [2]	pull-down binding Z-score [3]	pull-down binding Z-score [4]
GGAGUUCAAAUUGCUUCC [IAV_invivo_NP_5_Motif_19+IAV_invivo_NP_5_Motif_19]	-0.604	-0.561	-0.502	-0.404
GGAUCCCGACUGGCGAGAGCCAGGUAACGAAUGGAUCC [MG-aptamer]	2.4	0.277	-0.00379	-0.524
GGAUGAGAGAACUCAUCC [IAV_invivo_NP_5_Motif_6+IAV_invivo_NP_5_Motif_6]	-0.939	-0.724	-0.302	-0.323
GGAUGGUCUUCAAUCC [IAV_invivo_PB1_2_Motif_23+IAV_invivo_PB1_2_Motif_23]	-0.515	-0.47	-0.481	-0.137
GGAUGGUUACAGGACUAAGGAACAAUCCGUCC [IAV_invivo_HA_4_Motif_14+IAV_invivo_HA_4_Motif_14]	-0.0521	-0.295	-0.461	-0.14
GGAUGUCAAUCC [IAV_invivo_PB1_2_Motif_2+IAV_invivo_PB1_2_Motif_2]	-0.856	0.0736	0.302	-0.17
GGAUUGUACAGAAAGUGUGUUAAAUCC [SHAPE_invivo_SARS-CoV-2_Motif_47]	-0.185	-0.222	-0.22	0.139
GGAUUUCUGGACAUUUGGACAUAUAAUGCAGAAUUGUUAGUUCUACUGGAAAAUGAAAGGACUCUGGAUUUCC [IAV_invivo_HA_4_Motif_17+IAV_invivo_HA_4_Motif_17]	0.395	-0.198	-0.659	0.4
GGCAACUAGCACUCUCCAAGGGUGUUCACUUUGUUUGCAACUUGCUGUUGUUGUUUGUAACAGUUUACUCACACCUUUUGCUCGUUGCU [SHAPE_invitro_SARS-CoV-2_Motif_465]	-0.0997	-0.358	-0.318	-0.205
GGCACAAAUGCAACACUGCAUUACCAUGCGGUUGUGCC [3-way model-1_rpoH]	-1.27	-1.42	-1.03	-0.624
GGCAGACGUGGUCCAGAACAAACCCAAGGAAAUUUUGGGGACCAGGAACUAAUCAGACAAGGAACUGAUUACAAACAUUGGCC	0.614	0.753	0.608	0.536
GGCAGCGAGCC [IAV_invivo_NP_5_Motif_25+IAV_invivo_NP_5_Motif_25]	-0.713	-1.01	-0.756	-0.633
GGCAGUUUGUAUGUAAAUAAACAUGCAUUCC [SHAPE_invivo_SARS-CoV-2_Motif_362]	-0.727	-0.216	0.0152	-0.171
GGCAUCAUAUGGGUUGCAACUGAGGGAGCCUUGAAUACACCAAAAGAUCACAUUGGCACCCGCAAUCCUGCUAACAAUGCU [DMSMaPseq_invitro_SARS-CoV-2_Motif_513]	0.342	-0.253	-0.63	-0.241
GGCAUCUGCGGGCC [IAV_invivo_NP_5_Motif_21+IAV_invivo_NP_5_Motif_21]	-0.239	-0.759	-0.637	-0.641
GGCCAGCAGAGGCC [IAV_invivo_PA_3_Motif_7+IAV_invivo_PA_3_Motif_7]	-0.109	0.703	0.905	0.0485
GGCCAGGUUUCAAGGCC [IAV_invivo_PA_3_Motif_22+IAV_invivo_PA_3_Motif_22]	-0.29	-0.785	-0.64	-0.644
GGCCAUUAGAGGCC [IAV_invivo_PB2_1_Motif_29+IAV_invivo_PB2_1_Motif_29]	-1.06	-0.257	0.0791	-0.69
GGCCCGAGUGAUGGGCU [IAV_invivo_NA_6_Motif_9+IAV_invivo_NA_6_Motif_9]	0.201	-0.27	-0.127	-0.29
GGCCGCAAAUUGCACAAUUUGCCCCC [SHAPE_invivo_SARS-CoV-2_Motif_557]	-0.213	0.62	0.76	-0.187
GGCCUCACGGCC [IAV_invivo_PB1_2_Motif_9+IAV_invivo_PB1_2_Motif_9]	-0.914	-0.332	0.0835	-0.354

Sequence	pull-down binding Z-score [1]	pull-down binding Z-score [2]	pull-down binding Z-score [3]	pull-down binding Z-score [4]
GGCCUGGGCCUGGGCCUGGGCCUGGGCCUGGGCCUG [r(GGCCUG)6]	0.12	-0.184	0.00804	-0.435
GGCCUUGAAGCC [SHAPE_invitro_SARS-CoV-2_Motif_466]	-0.459	-0.703	-0.406	-0.216
GGCGAAUCUGGCGCC [IAV_invivo_NP_5_Motif_7+IAV_invivo_NP_5_Motif_7]	0.288	0.493	0.577	-0.231
GGCGAUAGUUGUAAUAACUAUAUGCU	-0.976	-1.31	-1.04	-0.564
GGCGAUUUUGUUAAAGCCACUUGCGAAUUUUGUGGCACUGAGAAUUUGACUAAAGAAGGUGCCACUACUUGUGGUUACUUACCCCAAAAUGCU	0.59	0.66	0.452	0.278
GGCGUAAGUCUGAUACUUACCUG [U1snRNP5ss-10]	1.08	0.668	0.212	0.0886
GGCGUCUCAAGGCACC [IAV_invivo_NP_5_Motif_2+IAV_invivo_NP_5_Motif_2]	-0.084	0.151	0.308	-0.687
GGCGUUGUCCUGCUGAAAUUGUUGACACUGUGAGUGCUUUGGUUUAUGAUAAUAAGCUUAAAGCACAUAAAGACAAAUCAGCUCAAUGCU	0.182	-0.324	-0.58	-0.302
GGCUAUGGUUUCCAGAGCC [IAV_invivo_PB1_2_Motif_37+IAV_invivo_PB1_2_Motif_37]	-0.356	0.285	0.417	-0.179
GGCUAUGUAACACAUGGCU	-1.06	-0.351	-0.114	-0.449
GGCUCAUAGACUUCCUUAAGGAUGUAAUGGAGUC [IAV_invivo_PB1_2_Motif_10+IAV_invivo_PB1_2_Motif_10]	1.62	0.795	0.164	-0.15
GGCUGGAUCGAGUGAGCAAGCAGCAGAGGCC [IAV_invivo_M1_M2_7_Motif_14+IAV_invivo_M1_M2_7_Motif_14]	2.47	1.37	0.316	0.757
GGCUGGUGGCACUACUGAAAUGCUAGCGAAAGCUUUGAGAAAAGUGCCAACAGAC	0.4	0.418	0.234	-0.33
GGCUGUAGUUGUGAUCAACUCCGCGAACCCAUGCUUCAGUCAGCUGAUGCACAAUCGUUUUUAAACGGGUUUGCGGUGUAAGUGCAGCC [DMSMaPseq_invitro_SARS-CoV-2_Motif_241]	0.388	-0.133	-0.355	-0.0355
GGCUUCAUCAAACAAUAUGGUGAUUGCC	-1.01	-0.484	-0.151	-0.331
GGCUUCAUUUAAUUAUUUGAAGUC	-1.75	-1.24	-0.867	-0.711
GGGAAAGAAGUCCU [IAV_invivo_HA_4_Motif_8+IAV_invivo_HA_4_Motif_8]	-0.872	-0.705	-0.398	-0.278
GGGAAGAACACC [IAV_invivo_M1_M2_7_Motif_3+IAV_invivo_M1_M2_7_Motif_3]	-0.0552	0.899	1.13	5.36e-05
GGGAAGGCGAAAGACC [IAV_invivo_PA_3_Motif_21+IAV_invivo_PA_3_Motif_21]	1.12	0.603	0.143	0.289
GGGAAUAUAAUCUC [IAV_invivo_NA_6_Motif_2+IAV_invivo_NA_6_Motif_2]	-0.715	1.33	1.52	0.038
